Results on one molecule are retold here after patent US20130101549A1 (Biogen, published 2013).

Experiment [1] has as its target Soluble human LTBR (shuLTBR) (human, UniProt P36941 31-227, limits assumed). The experiment is described as follows: SEC / light scattering. As to the method:
Soluble human LTBR (shuLTBR) was prepared by limited proteolytic digestion of human LTBR-Ig and purified by chromatography on protein A Sepharose and Fractogel TMAE. […] Controls with each protein were also included. The samples were analyzed by SEC using a […] column (Phenomenex) in PBS with a Waters Alliance HPLC instrument.

For experiment [2], the target named is T1, human HVEM-Ig (human, UniProt Q92956 39-202).
T1 construct: Expressed and purified in house; also called HVEM-Fc; Herpes virus entry mediator-Ig
T1 sequence (looked up): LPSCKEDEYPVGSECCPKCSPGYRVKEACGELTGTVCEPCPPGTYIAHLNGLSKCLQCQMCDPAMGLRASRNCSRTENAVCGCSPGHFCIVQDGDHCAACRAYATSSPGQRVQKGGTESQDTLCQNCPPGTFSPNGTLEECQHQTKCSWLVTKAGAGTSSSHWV
Briefly: FACS (HVEM column of Table 2; format not told there).

Experiment [3] has as its target T2, human HER2-Fc (human, UniProt P04626 23-652).
T2 construct: Bought from R&D Systems: homodimeric fusion of the HER2 extracellular domain and human IgG1 Fc; also called human ErbB2-Fc; rhErbB2-Fc; not shown: Fc fragment of human IgG1
Briefly: ELISA on coated huHER2-Fc, HRP anti-human kappa; the number is C of the printed 4-P fit (A -0.074, B 0.86, D 1.013, R^2 0.999); x axis: Fab equivalent concentration. How it is done:
(§1) Wells of 96-well plates were coated by incubation overnight at 4-8° C. with goat antibodies against human kappa chain (80 ul/well of a 5 ug/ml solution in PBS). Wells were emptied, filled completely with a solution of PBS with 1% BSA (blocking buffer) and incubated at room temperature for 1 hour. Wells were emptied, washed twice PBS containing 0.05% Tween 20 (PBST) and filled with the samples (80 ul/well of 3× dilution series of the standard and supernatants in blocking buffer) prepared in another 96-well plate. After a 2-hour incubation at room temperature, the wells were emptied, washed three times with PBST and filled with a solution of HRP-conjugated goat pAbs anti-human kappa chain (80 ul/well of a 2000-fold dilution in blocking buffer). After 1-hour incubation, the wells were emptied and filled with a solution of HRP substrate prepared freshly. The color was left to develop for 3 minutes and was stopped by addition of an equal volume of 1N H₂SO₄. Absorbance was measured at 450 nm using a Plate Reader (SpectraMax, Molecular Devices). The data was processed and graphs were created using SoftMax Pro software.
Human and murine HER2-Fc (homodimeric fusion proteins consisting of the extracellular domain of HER2 and the Fc fragment of human IgG1) were obtained from R&D Systems. […]

Experiment [4] addresses T3, human LTβR-Ig (human, UniProt P36941 31-227).
T3 construct: Expressed and purified in house; also called hLTbR-Ig; human LTBR-Ig
Briefly: ELISA, huLTBR-Ig coated at 0.2 ug/ml, HRP goat anti-human kappa; the number is C of the printed 4-P fit (A 0.057, B 0.9, D 1.548, R^2 0.998); Fab-Light is BIIB71F10-132 by paragraph 502. As to the method:
as §1, with “Human and murine ErbB2-Fc were obtained from R&D Systems. Wells of” for “Wells of”, “were coated with 2 ug/ml or 0.2 ug/ml of human or murine HER2-Fc by incubation” for “were coated by incubation”, “C. with either of these six proteins (80 ul/well” for “C. with goat antibodies against human kappa chain (80 ul/well”, “of a 0.2 or 2 ug/ml solution” for “of a 5 ug/ml solution”
Human and murine LTBR-Ig were expressed and purified in house.

The target in experiment [5] is T1, human HVEM-Ig. The experiment is described as follows: ELISA, huHVEM-Ig coated at 2 ug/ml, HRP goat anti-human kappa; the number is C of the printed 4-P fit (A 0.064, B 0.959, D 1.517, R^2 0.999); Fab-Light is BIIB71F10-132 by paragraph 503. How it is done: as §1, with “Human and murine ErbB2-Fc were obtained from R&D Systems. Wells of” for “Wells of”, “were coated with 2 ug/ml or 0.2 ug/ml of human or murine HER2-Fc by incubation” for “were coated by incubation”, “C. with either of these six proteins (80 ul/well” for “C. with goat antibodies against human kappa chain (80 ul/well”, “of a 0.2 or 2 ug/ml solution” for “of a 5 ug/ml solution”
(§2) Human and murine HVEM-Ig were expressed and purified in house.

Experiment [6] deals with T4, murine HVEM-Ig (mouse, UniProt Q80WM9 39-210).
T4 construct: Expressed and purified in house
T4 sequence (looked up): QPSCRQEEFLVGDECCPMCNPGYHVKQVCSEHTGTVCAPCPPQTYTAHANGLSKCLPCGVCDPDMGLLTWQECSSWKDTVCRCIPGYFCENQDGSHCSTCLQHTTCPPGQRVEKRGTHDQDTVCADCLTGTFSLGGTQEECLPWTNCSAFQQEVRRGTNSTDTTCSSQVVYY
Briefly: ELISA, muHVEM-Ig coated at 2 ug/ml, HRP goat anti-human kappa; the number is C of the printed 4-P fit (A 0.036, B 0.816, D 1.534, R^2 0.997); Fab-Light is BIIB71F10-132 by paragraph 503. As to the method:
as §1, with “Human and murine ErbB2-Fc were obtained from R&D Systems. Wells of” for “Wells of”, “were coated with 2 ug/ml or 0.2 ug/ml of human or murine HER2-Fc by incubation” for “were coated by incubation”, “C. with either of these six proteins (80 ul/well” for “C. with goat antibodies against human kappa chain (80 ul/well”, “of a 0.2 or 2 ug/ml solution” for “of a 5 ug/ml solution”
as §2

The target in experiment [7] is T1, human HVEM-Ig. Briefly: ELISA, huHVEM-Ig coated at 0.2 ug/ml, HRP goat anti-human kappa; the number is C of the printed 4-P fit (A 0.08, B 1.089, D 1.303, R^2 0.999); Fab-Light is BIIB71F10-132 by paragraph 503. As to the method: as §1, with “Human and murine ErbB2-Fc were obtained from R&D Systems. Wells of” for “Wells of”, “were coated with 2 ug/ml or 0.2 ug/ml of human or murine HER2-Fc by incubation” for “were coated by incubation”, “C. with either of these six proteins (80 ul/well” for “C. with goat antibodies against human kappa chain (80 ul/well”, “of a 0.2 or 2 ug/ml solution” for “of a 5 ug/ml solution”
as §2

In experiment [8] the target is T4, murine HVEM-Ig. The experiment is described as follows: ELISA, muHVEM-Ig coated at 0.2 ug/ml, HRP goat anti-human kappa; the number is C of the printed 4-P fit (A 0.045, B 0.716, D 1.298, R^2 0.996); Fab-Light is BIIB71F10-132 by paragraph 503. How it is done:
as §1, with “Human and murine ErbB2-Fc were obtained from R&D Systems. Wells of” for “Wells of”, “were coated with 2 ug/ml or 0.2 ug/ml of human or murine HER2-Fc by incubation” for “were coated by incubation”, “C. with either of these six proteins (80 ul/well” for “C. with goat antibodies against human kappa chain (80 ul/well”, “of a 0.2 or 2 ug/ml solution” for “of a 5 ug/ml solution”
as §2

“And” between values parts separate entries of the source, which are not always exact repeats. Equal entries are not always repeated.

Sequence of Soluble human LTBR (shuLTBR) (P36941 31-227 limits assumed): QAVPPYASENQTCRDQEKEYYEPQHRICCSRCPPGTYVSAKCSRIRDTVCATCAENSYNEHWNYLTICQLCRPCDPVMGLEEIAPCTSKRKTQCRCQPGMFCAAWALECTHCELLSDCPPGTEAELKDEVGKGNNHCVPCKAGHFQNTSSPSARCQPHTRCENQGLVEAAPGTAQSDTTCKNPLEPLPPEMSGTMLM
T3 sequence (P36941 31-227): as the sequence (P36941 31-227 limits assumed) above

B1: 71F10 Fab-hLIGHT fusion with the (G4S)4 linker (BIIB71F10-132) (other)
heavy: EVQLLESGGGLVQPGGSLRLSCAASGFTFSSYGMVWVRQAPGKGLEWVSSISSSGGLTWYADSVKGRFTISRDNSKNTLYLQMNSLRAEDTAVYYCASPPGIAVARDYWGQGTLVTVSSASTKGPSVFPLAPSSKSTSGGTAALGCLVKDYFPEPVTVSWNSGALTSGVHTFPAVLQSSGLYSLSSVVTVPSSSLGTQTYICNVNHKPSNTKVDKKVEPKSCDKGGGGSGGGGSGGGGSGGGGSNPAAHLTGANSSLTGSGGPLLWETQLGLAFLRGLSYHDGALVVTKAGYYYIYSKVQLGGVGCPLGLASTITHGLYKRTPRYPEELELLVSQQSPCGRATSSSRVWWDSSFLGGVVHLEAGEEVVVRVLDERLVRLRDGTRSYFGAFMV
light: DIQMTQSPSSLSASVGDRVTITCRASQGISNYLAWYQQKPGKVPKLLIYAASTLQSGVPSRFSGSGSGTDFTLTISSLQPEDVATYYCQKYNSALLTFGGGTKVEIKRTVAAPSVFIFPPSDEQLKSGTASVVCLLNNFYPREAKVQWKVDNALQSGNSQESVTEQDSKDSTYSLSSTLTLSKADYEKHKVYACEVTHQGLSSPVTKSFNRGEC
notes: Trimer of Fab-LIGHT units; also called 71F10 Fab-(G4S)4-LIGHT
Take B1: the “stoichiometry (shuLTBR for 1 Fab-Light trimer)” value in experiment [1] was 2 shuLTBR per trimer and 3 shuLTBR per trimer. The EC50 in experiment [2] worked out at 0.5 nM; in experiment [3] it was 7 ng/mL; in experiment [4], 1.91 ng/mL; in experiment [5] it was 2.45 ng/mL; in experiment [6], 2.5 ng/mL; in experiment [7], 3.98 ng/mL. The molecule further registered an EC50 in experiment [8] of 26.3 ng/mL.
